Source: the supplement of paper PMC10724198
± gives the standard deviation of the averaged measurements.

System: Saccharomyces cerevisiae
Assay: protein stability index of tFT-peptide fusion (C-terminal peptide) (PSI (0-1 scale)); higher = more stable (slower turnover)
Settings: genetic background: wild type; temperature: 30 C
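Further: PSI is a weighted mean of sequencing reads over stability bins, variants kept only with over 10 reads, mCherry proximal and sfGFP distal, peptide attached via GGGS linker.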

| Sequence | protein stability index |
| --- | --- |
| KLRSTLVSAQGV | 0.652 ± 0.015 |
| VSWRGSFQGIYG | 0.685 ± 0.043 |
| VMPSICTKYGVN | 0.717 ± 0.13 |
| PSSPSPPYPFAP | 0.684 ± 0.016 |
| DCREALLAKVYL | 0.627 ± 0.07 |
| GPPPPPRPPLPP | 0.665 ± 0.049 |
| SSNSSFFIWGLV | 0.7119 ± 0.00078 |
| ALIFPLPASSTF | 0.609 ± 0.038 |
| PVPLTPRCPSVT | 0.6 ± 0.019 |
| GAKAARTTITSG | 0.653 ± 0.026 |
| VKRVYQRFHVKK | 0.666 ± 0.04 |
| PPLPPSSPRSLL | 0.701 ± 0.018 |
| EGDRWAGEVVRG | 0.705 ± 0.011 |
| HISACKFPARTA | 0.692 ± 0.057 |
| FPLPPPPSLSTP | 0.656 ± 0.036 |
| IWTRAFAPSNRF | 0.715 ± 0.02 |
| PPHPPAPHPSPT | 0.733 ± 0.069 |
| LPPFLLPPFFSI | 0.718 ± 0.055 |
| DSPLAGALTEVD | 0.715 ± 0.04 |
| RRRLRSGYCCLV | 0.6861 ± 0.00091 |
| PRSVLGFKMGRF | 0.715 ± 0.065 |
| LVSSLVSSEVYM | 0.656 ± 0.019 |
| PPPSFPDWRYRW | 0.755 ± 0.017 |
| GILRGSKKVDPP | 0.622 ± 0.029 |
| PPPLPPPTPLPT | 0.681 ± 0.12 |
| LSFFPPPLPPSS | 0.71 ± 0.044 |

| Sequence | protein stability index |
| --- | --- |
| SPAASPVPLHPR | 0.603 ± 0.15 |
| RILLIRRKEKYL | 0.5578 ± 0.0028 |
| SGCCCGSDVYIG | 0.6905 ± 0.0055 |
| SSEECYDTKGEL | 0.674 ± 0.027 |
| FPPPPPHTPSSA | 0.694 ± 0.057 |
| ENDKPITRKETQ | 0.605 ± 0.07 |
| FTNDMSSGRVAI | 0.692 ± 0.016 |
| PSPPSPPPPPPT | 0.749 ± 0.06 |
| VWGGGGVTVWLV | 0.6149 ± 0.0054 |
| GSGGLRVVCLLM | 0.653 ± 0.027 |
| PPVISAPIPLAP | 0.688 ± 0.052 |
| SLFFGDCNLVRV | 0.7166 ± 0.0036 |
| PLLGPFTPSSLL | 0.737 ± 0.0088 |
| IWFRGGPGQVPV | 0.683 ± 0.027 |
| LLTSFFTLFCNT | 0.657 ± 0.05 |
| HGGTGDPAGIES | 0.694 ± 0.013 |
| PRFPLPPHPSPR | 0.704 ± 0.03 |
| PPPPPPSPLGPP | 0.674 ± 0.057 |
| GWFWGRGGRGRG | 0.657 ± 0.05 |
| SLPRPPRPPQSH | 0.677 ± 0.038 |
| PSPDPCPLGRTA | 0.629 ± 0.067 |
| GKCFSFSFNCLH | 0.521 ± 0.023 |
| GVVGTISLFVLD | 0.61 ± 0.018 |
| DGKGLRATWQWS | 0.737 ± 0.037 |
| PTPLSPRNTILR | 0.726 ± 0.1 |
| LIQSDKTPRTTR | 0.696 ± 0.012 |

| Sequence | protein stability index |
| --- | --- |
| KGYGKTGTLRHD | 0.646 ± 0.013 |
| IASSRPHSNQRE | 0.692 ± 0.021 |
| VGYGTGGAGGVE | 0.766 ± 0.044 |
| NLYLEKLLHSEP | 0.715 ± 0.018 |
| LPPLLDSPPCSP | 0.733 ± 0.04 |
| RLSSVPSRSLPA | 0.733 ± 0.096 |
| LVTSACPVPPAR | 0.5766 ± 0.002 |
| LFPVTSLFPPLP | 0.706 ± 0.012 |
| LPPHRSSTPPPA | 0.644 ± 0.02 |
| FLGGWVCGWPQF | 0.772 ± 0.15 |
| ISIRKNSNQETM | 0.692 ± 0.14 |
| RLPPALRRNAPP | 0.665 ± 0.18 |
| QYKKKEKKQNRT | 0.624 ± 0.1 |
| ALWWRVGCGVGL | 0.657 ± 0.042 |
| NKTRRCTAHVGG | 0.679 ± 0.054 |
| GATGGACGGWAG | 0.67249 ± 0.00044 |
| PLLSCLFLLFFL | 0.526 ± 0.0065 |
| KIKRKKSIHDKQ | 0.693 ± 0.012 |
| KITKRTKKTKEN | 0.67086 ± 0.00056 |
| RGARVGKGDACW | 0.607 ± 0.069 |
| GCAWGVKYEVIL | 0.637 ± 0.05 |
| AAPPAYGPPPPP | 0.6974 ± 0.0025 |
| CDCDESYFNPLG | 0.666 ± 0.037 |
| HSPHLLSFFSPM | 0.71 ± 0.076 |
| TPPPASALPPSP | 0.705 ± 0.014 |
| RWFQSSDVVDRQ | 0.703 ± 0.086 |

| Sequence | protein stability index |
| --- | --- |
| KNKKRDKYRKKT | 0.607 ± 0.011 |
| PPHPPNPLPTPQ | 0.829 ± 0.17 |
| PPPLLPPHLPLL | 0.717 ± 0.032 |
| PSSPPSSTSPPL | 0.633 ± 0.16 |
| RLLKRAVRKIFT | 0.61808 ± 0.00049 |
| PLRPSVSALPPF | 0.683 ± 0.018 |
| RFAGCFSFFRAA | 0.683 ± 0.035 |
| GGGGGGVEPCFV | 0.668 ± 0.041 |
| PIPPESLHPDHN | 0.83 ± 0.038 |
| RGPELDRRLPLC | 0.663 ± 0.03 |
| GRKGGEGERERT | 0.6715 ± 0.0049 |
| PGGSVYKPLATA | 0.644 ± 0.071 |
| GYRRELGVCSGD | 0.586 ± 0.08 |
| RKEEEGNYWNRI | 0.651 ± 0.02 |
| YPSQLGPSVPLS | 0.703 ± 0.039 |
| KKNQNSKNRKEN | 0.627 ± 0.036 |
| RCTQCFSPFSTD | 0.7221 ± 0.0052 |
| MLSFTQRYYSAI | 0.64 ± 0.03 |
| GLSSLVLRFFLP | 0.663 ± 0.025 |
| SGWEVAGGCDNK | 0.692 ± 0.0021 |
| GGGGGGGAWKGV | 0.69 ± 0.02 |
| IHVKKNQACSLF | 0.646 ± 0.024 |
| GPPLSPPLLLLL | 0.681 ± 0.046 |
